From patent US20220185900A1 (Regeneron, published 2022)

T1: Macaca fascicularis (mf) RET.mmh (Macaca fascicularis)
T1 construct: also called monkey RET
T1 chain: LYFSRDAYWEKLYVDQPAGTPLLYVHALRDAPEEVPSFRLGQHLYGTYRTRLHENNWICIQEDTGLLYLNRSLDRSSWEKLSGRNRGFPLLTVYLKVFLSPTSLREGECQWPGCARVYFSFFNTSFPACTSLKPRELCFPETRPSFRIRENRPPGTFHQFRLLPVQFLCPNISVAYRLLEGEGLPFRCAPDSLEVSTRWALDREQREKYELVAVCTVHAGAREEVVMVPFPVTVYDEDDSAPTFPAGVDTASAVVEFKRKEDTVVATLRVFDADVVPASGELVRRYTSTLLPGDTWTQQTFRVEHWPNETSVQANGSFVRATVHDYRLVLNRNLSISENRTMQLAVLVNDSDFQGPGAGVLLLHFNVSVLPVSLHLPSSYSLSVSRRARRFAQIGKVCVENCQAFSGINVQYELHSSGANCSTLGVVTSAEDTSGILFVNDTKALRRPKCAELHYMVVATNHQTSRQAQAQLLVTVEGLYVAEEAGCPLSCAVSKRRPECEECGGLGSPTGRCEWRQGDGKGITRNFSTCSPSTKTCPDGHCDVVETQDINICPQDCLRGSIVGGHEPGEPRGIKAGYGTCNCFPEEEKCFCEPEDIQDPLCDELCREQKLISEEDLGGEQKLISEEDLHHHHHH

B1: H4H8080P (antibody, human IgG4, V domains shown)
VH: EVQLVESGGGLVQSGGSLRLSCVASGFTFSTYAMTWVRQAPGRGLEWVSAISGSGASTYYADSLKGRFTVSRDNSKNTLYLQMNSLRAEDTAVYYCSKDHRNYDSDYDMDVWGQGTTVTVSS
VL: DIQMTQSPSSLSASVGDRVTITCRASQGIRNYLGWYQQKPGKAPKRLIYTASSLQSGVPSRFRGSGSGTEFTLTISSLQPEDFATYYCLQHNSYPYTFGQGTKLEIK
notes: human IgG4 Fc (H4H prefix)
B2: H4H8083P (antibody, human IgG4, V domains shown)
VH: QVQLVESGGGVVQPGRSLRLSCAASGFTFNNYVMHWVRQAPGKGLEWVALIWYDGSNKYYADSVKGRFTISRDNSKNALNLQMNSLRAEDTAVYFCARVSIAARNYYYGGLDVWGQGTTVTVSS
VL: EIVLTQSPGTLSLSPGERATLSCRASQSVSSTYLAWYQQKPGQAPRLLIYGASSRATGIPDRFSGSGSGTDFTLTISRLEPEDFAVYYCQHYGGSPLTFGGGTKVEIK
notes: human IgG4 Fc (H4H prefix)
B3: H4H8066P (antibody, human IgG4, V domains shown)
VH: EVQLVESGGGLVQPGGSLRLSCEASGFTFSRYAMTWVRQAPGKGLEWVSGISGSGGSTFYVDSLQGRFTLSRDNSKHTLFLQMNSLRAEDTAIYYCAKENTYGHFDYWGQGTLVTVSS
VL: DIQLTQSPSFLSASVGDRVTITCWASQDISTYLAWYQQKPGKAPQVLIYAASSLQYGVPSRFSGSGSGTEFTLTITSLQPEDFATYYCQQLIGYPYIFGQGTKLEIK
notes: human IgG4 Fc (H4H prefix)
B4: H4H8067P (antibody, human IgG4, V domains shown)
VH: QVQLVESGGGVVQPGRSLRLSCVASGFTFSNYGMHWVRQAPGKGLEWVALIWYDGSNKYFADSVKGRFTISRDNSKRMMFLEMNSLRAEDTAIYYCTRDRLFDFWGQGTLVTVSS
VL: AIQMTQSPSSLSASVGDRVSITCRASQDIRHDLGWFHQKPGKAPKLLIYAASTLQSGVPSRFGGSGSGTDFTLTITSLQPEDFGTYYCLQDYNYPATFGQGTRLEIK
notes: human IgG4 Fc (H4H prefix)
B5: H4H8084P (antibody, human IgG4, V domains shown)
VH: QVQLVESGGGVVQPGRSLRLSCEASGFTFRNYGMHWVRQAPGKGLDWVSTIYYDGSDEYYSDSVKGRFTISRDNSKNTLYLQMNSLRAEDTAVYYCARDPPSFRYFDYWGQGTLVTVSS
VL: DIQMTQSPSTLSASVGDRVTITCRASQSIRSWLTWYQQKPGKAPKVLIYKASTLERGVPSRFSGSGSGTEFTLTISSLQPEDFATYYCHQYSSYSYTFGQGTKLEIK
notes: human IgG4 Fc (H4H prefix)
B6: H4H8085P (antibody, human IgG4, V domains shown)
VH: QVQLVESGGGVVQPGRSLRLSCTASGFTFDNYGMHWVRQAPGKGLEWVAVISYDGSNTFYADSVKGRFTISRDNSKNALYLQMNSLRAEDTAVYYCAKDLEFDILIGYPFDSWGRGTLVTVSS
VL: DIQLTQSPSFLSASVGDRVTITCWASQDISRYLAWYQQKPGKAPNLLIYAASTLQSGVPSRFSGSGSGTEFTLTINSLQPEDFATYYCQQLFSYPRTFGQGTKVEIK
notes: human IgG4 Fc (H4H prefix)
B7: H2M7086N (antibody, mouse IgG2, V domains shown)
VH: QVQLVESGGGVVQPGRSLRLSCVVSGFTFSNYGMHWVRQGPGRGLEWLALIWYDGSDKYYAESVRGRFTISRDNSKNTVYLQMNSLRAEDTAMYYCTRDRIFDYWGQGTLVTVSS
VL: AIQMTQSPSSLSASVGDRVTITCRASQDIRNDLGWYQHNPGKAPNLLIYAASTLQIGVPSRFRGSGSGTDFTLTISSLQPEDFATYYCLQDFDYPLSFGGGTKVEIR
notes: human variable domains with mouse IgG2 Fc (H2M prefix)
B8: H4H7086N (antibody, human IgG4, V domains shown)
VH: B7 VH
VL: B7 VL
notes: human IgG4 Fc form of 7086N; also called H4H7086P

These binders were tested against T2, hRET.mmh (human, UniProt P07949 29-635, biotinylated in the ELISA of Example 4 (biot-hRET.mmh); not in the SPR of Example 3) (assay: SPR Biacore T200, mAb capture, 25 C).
T2 construct: also called biot-hRET.mmh; soluble monomeric human RET
Procedure: (§1) Binding affinities and kinetic constants of human anti-RET antibodies were determined by surface plasmon resonance (Biacore T200) at […] (Tables 2-3). […] Binding equilibrium dissociation constants (KD) and dissociative half-lives (t_{1/2}) were calculated from the kinetic rate constants as: KD [M]=kd/kₐ; and t_{1/2}(min)=(ln2/(60*kd). Calculations were performed using BiacoreT200 evaluation software v1.0.

Kd	koff	kon	t½	Binder
2.38 nM	0.000502 s⁻¹	211000 M⁻¹ s⁻¹	23 min	B1
2.52 nM	0.000484 s⁻¹	192000 M⁻¹ s⁻¹	24 min	B2
2.02 nM	0.000257 s⁻¹	127000 M⁻¹ s⁻¹	45 min	B3
2.12 nM	0.000235 s⁻¹	111000 M⁻¹ s⁻¹	49 min	B4
0.518 nM	0.000375 s⁻¹	723000 M⁻¹ s⁻¹	31 min	B5
2.34 nM	0.000187 s⁻¹	80100 M⁻¹ s⁻¹	62 min	B6

Target: T1, Macaca fascicularis (mf) RET.mmh
Experiment: SPR Biacore T200, mAb capture, 25 C
Procedure: as §1

binding result	Kd	koff	kon	t½	Binder
no binding	–	–	–	–	B1
–	3.44 nM	0.000711 s⁻¹	207000 M⁻¹ s⁻¹	16 min	B2
–	13.7 nM	0.000882 s⁻¹	64300 M⁻¹ s⁻¹	13 min	B3
–	385 nM	0.0415 s⁻¹	108000 M⁻¹ s⁻¹	0.3 min	B4
–	0.565 nM	0.000393 s⁻¹	695000 M⁻¹ s⁻¹	29 min	B5
–	3.4 nM	0.000225 s⁻¹	66000 M⁻¹ s⁻¹	51 min	B6

What follows are binders tested against T3, hRET.mFc (human) (assay: SPR Biacore T200, mAb capture, 25 C).
T3 construct: also called dimeric human RET
Procedure: as §1

Kd	koff	kon	t½	Binder
1.32 nM	0.000242 s⁻¹	183000 M⁻¹ s⁻¹	48 min	B1
1.14 nM	0.000224 s⁻¹	197000 M⁻¹ s⁻¹	52 min	B2
0.58 nM	0.00012 s⁻¹	207000 M⁻¹ s⁻¹	96 min	B3
0.94 nM	0.000158 s⁻¹	168000 M⁻¹ s⁻¹	73 min	B4
0.284 nM	0.000204 s⁻¹	720000 M⁻¹ s⁻¹	57 min	B5
1.33 nM	0.000125 s⁻¹	94000 M⁻¹ s⁻¹	92 min	B6

Each binder was assayed against T2, hRET.mmh (assay: SPR Biacore T200, mAb capture, 37 C).
Procedure: as §1

Kd	koff	kon	t½	Binder
9.35 nM	0.00267 s⁻¹	285000 M⁻¹ s⁻¹	4 min	B1
9.04 nM	0.00255 s⁻¹	282000 M⁻¹ s⁻¹	5 min	B2
5.43 nM	0.00106 s⁻¹	195000 M⁻¹ s⁻¹	11 min	B3
7.31 nM	0.00116 s⁻¹	159000 M⁻¹ s⁻¹	10 min	B4
1.56 nM	0.00165 s⁻¹	1.06e+06 M⁻¹ s⁻¹	7 min	B5
6.23 nM	0.000897 s⁻¹	144000 M⁻¹ s⁻¹	13 min	B6

Target: T1, Macaca fascicularis (mf) RET.mmh
Experiment: SPR Biacore T200, mAb capture, 37 C
Procedure: as §1

Kd	koff	kon	t½	Binder
14.2 nM	0.004 s⁻¹	283000 M⁻¹ s⁻¹	3 min	B2
39.4 nM	0.00323 s⁻¹	81900 M⁻¹ s⁻¹	4 min	B3
196 nM	0.0603 s⁻¹	307000 M⁻¹ s⁻¹	0.2 min	B4
1.76 nM	0.00178 s⁻¹	1.01e+06 M⁻¹ s⁻¹	6 min	B5
8.3 nM	0.00126 s⁻¹	152000 M⁻¹ s⁻¹	9 min	B6

The binders below were run against T3, hRET.mFc (assay: SPR Biacore T200, mAb capture, 37 C).
Procedure: as §1

Kd	koff	kon	t½	Binder
3.98 nM	0.00107 s⁻¹	269000 M⁻¹ s⁻¹	11 min	B1
3.02 nM	0.0008 s⁻¹	264000 M⁻¹ s⁻¹	14 min	B2
1.28 nM	0.000335 s⁻¹	262000 M⁻¹ s⁻¹	34 min	B3
2.24 nM	0.000458 s⁻¹	204000 M⁻¹ s⁻¹	25 min	B4
0.809 nM	0.00085 s⁻¹	1.05e+06 M⁻¹ s⁻¹	14 min	B5
5.5 nM	0.00055 s⁻¹	99000 M⁻¹ s⁻¹	21 min	B6

What follows are binders tested against T2, hRET.mmh (assay: competition sandwich ELISA: 1 nM biot-hRET.mmh + antibody, plate-coated GDNF/GFRα1 co-complex).
Procedure: The ability of anti-RET antibodies to block the binding of human RET to pre-complexed plate bound GDNF:GFRα1 was assessed using a competition sandwich ELISA.
Antibody-RET mixtures were incubated for 1 hour at RT and then transferred to microtiter plates previously coated with the hGDNF/hGFRα1 co-complex. Binding was allowed to proceed for 1 hr at RT followed by extensive washing. […] Plates were read at 450 nm and data analysis used a sigmoidal dose-response model within Prism™ software.
The absorbance values of the wells containing the highest concentration for each antibody were used to determine the blocking percent at maximum concentration antibody tested.

% Max Blocking	IC50	Binder
82%	< 0.25 nM	B1
95%	< 0.25 nM	B2
57%	0.41 nM	B3
95%	< 0.25 nM	B4
96%	< 0.25 nM	B5
96%	< 0.25 nM	B6
96%	0.33 nM	B7
97%	0.39 nM	B8
